For assay [1], the target named is murine CXCR6 on differentiated WT ES cells (mouse) (UniProt Q9EQ16). Description: cell-based or functional assay.
For assay [2], the target named is murine CXCR4 on mouse ES cells and mouse embryo fibroblasts (mouse) (UniProt P70658). Description: cell-based or functional assay.
murine CXCR4 on mouse ES cells and mouse embryo fibroblasts (mouse), sequence (P70658 whole entry): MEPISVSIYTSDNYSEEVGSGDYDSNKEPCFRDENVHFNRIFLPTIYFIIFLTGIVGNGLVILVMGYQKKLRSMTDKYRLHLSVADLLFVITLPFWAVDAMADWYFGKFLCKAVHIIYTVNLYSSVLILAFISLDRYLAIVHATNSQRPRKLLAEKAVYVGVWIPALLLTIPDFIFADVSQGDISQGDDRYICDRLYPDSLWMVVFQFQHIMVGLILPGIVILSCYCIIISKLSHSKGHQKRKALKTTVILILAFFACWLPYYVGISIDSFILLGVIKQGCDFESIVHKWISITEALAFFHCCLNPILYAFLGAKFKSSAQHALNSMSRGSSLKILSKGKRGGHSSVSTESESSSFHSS

murine CXCR6 on differentiated WT ES cells (mouse), sequence (Q9EQ16 whole entry): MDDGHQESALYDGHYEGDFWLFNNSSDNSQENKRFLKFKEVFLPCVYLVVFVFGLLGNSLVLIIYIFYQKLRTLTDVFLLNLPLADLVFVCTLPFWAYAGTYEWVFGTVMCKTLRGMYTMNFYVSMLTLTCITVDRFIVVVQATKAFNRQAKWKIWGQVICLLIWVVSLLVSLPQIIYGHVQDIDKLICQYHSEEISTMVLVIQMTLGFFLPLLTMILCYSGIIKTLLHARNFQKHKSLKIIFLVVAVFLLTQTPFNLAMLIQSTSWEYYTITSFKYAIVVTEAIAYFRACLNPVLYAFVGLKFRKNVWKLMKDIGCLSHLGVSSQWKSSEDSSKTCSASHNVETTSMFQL

chemokine CXCL16 (R&D) (ligand) came in with a chemotaxis of differentiated WT ES cells towards CXCL16 in assay [1] of 2 fold.
On to chemokine CXCL12 (R&D systems) (ligand), for which the CXCL12 chemotaxis of differentiating WT-ES cells in assay [2] is more than 2 fold.
